From patent US20230051715A1 (MABWELL THERAPEUTICS, published 2023)

Legend:
[1] = biological target: T1, active human C1s (CompTech A104 C1s Enzyme) (human, UniProt P09871 16-688); experiment: BLI (Octet RED96e), antibody on AHC biosensor; HuC1s Form: Active; R^2 0.9994
T1 construct: also called human active C1s; active C1s protein
T1 sequence (looked up): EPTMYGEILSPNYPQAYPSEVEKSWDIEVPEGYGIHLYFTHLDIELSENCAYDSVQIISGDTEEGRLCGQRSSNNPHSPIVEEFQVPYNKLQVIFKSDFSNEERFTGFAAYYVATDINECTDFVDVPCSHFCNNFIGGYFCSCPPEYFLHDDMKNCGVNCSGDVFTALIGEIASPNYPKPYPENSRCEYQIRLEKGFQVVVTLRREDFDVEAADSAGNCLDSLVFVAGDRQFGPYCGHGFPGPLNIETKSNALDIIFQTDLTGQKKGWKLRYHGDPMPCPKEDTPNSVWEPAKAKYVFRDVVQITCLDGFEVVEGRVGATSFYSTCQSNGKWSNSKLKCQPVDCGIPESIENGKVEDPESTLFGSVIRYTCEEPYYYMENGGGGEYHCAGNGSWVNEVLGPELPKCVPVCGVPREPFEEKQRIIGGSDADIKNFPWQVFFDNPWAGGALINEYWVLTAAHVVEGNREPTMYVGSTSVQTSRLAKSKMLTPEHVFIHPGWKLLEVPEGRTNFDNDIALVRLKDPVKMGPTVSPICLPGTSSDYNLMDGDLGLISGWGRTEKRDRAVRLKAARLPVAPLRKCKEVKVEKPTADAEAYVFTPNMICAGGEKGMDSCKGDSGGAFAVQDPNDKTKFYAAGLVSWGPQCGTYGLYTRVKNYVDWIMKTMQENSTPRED
Procedure: Bio-Layer Interferometry technology was used for anti-C1s antibody affinity measurement and binding kinetics determinations with OCTET® RED96e system (Sartorius AG). Pre-hydrated Anti-Human IgG Fc Capture (AHC) biosensors were first equilibrated in 1×KB (Kinetic Buffer, 1×PBS pH 7.4+0.02% Tween-20+0.1% BSA) for 120 sec for the first baseline, followed by loading with […] anti-C1s antibody (2-7, FIG. 3A; 2-8, FIG. 3B; hz2-7(H1L2), FIG. 3C; hz2-8(H1L2 G80A/T82A, FIG. 3D) onto AHC biosensors for 240 sec. Then, the second baseline signal was established for 120 sec before association with various concentrations of active human C1s (CompTech A104) for 240-360 sec. At last, analyte was dissociated in 1×KB for 360 sec. Anti-C1s antibodies 2-7 and 2-8 were also analyzed against human C1s proenzyme (CompTech A103) (data not shown). Data analysis was carried out using OCTET® Data Analysis HT Software (Sartorius AG). KD, kₒₙ, koff and R² values were calculated for each antibody and target combination, as summarized in FIG. 3E showing high affinity binding with KD values in the low nanomolar to picomolar range.

[2] = biological target: T2, human C1s mutant M5 (K336G) (human, UniProt P09871 16-688); experiment: ELISA, plate coated with human C1s mutant M5: K336G, OD450nm
T2 construct: The entry is the mutant itself
T2 sequence: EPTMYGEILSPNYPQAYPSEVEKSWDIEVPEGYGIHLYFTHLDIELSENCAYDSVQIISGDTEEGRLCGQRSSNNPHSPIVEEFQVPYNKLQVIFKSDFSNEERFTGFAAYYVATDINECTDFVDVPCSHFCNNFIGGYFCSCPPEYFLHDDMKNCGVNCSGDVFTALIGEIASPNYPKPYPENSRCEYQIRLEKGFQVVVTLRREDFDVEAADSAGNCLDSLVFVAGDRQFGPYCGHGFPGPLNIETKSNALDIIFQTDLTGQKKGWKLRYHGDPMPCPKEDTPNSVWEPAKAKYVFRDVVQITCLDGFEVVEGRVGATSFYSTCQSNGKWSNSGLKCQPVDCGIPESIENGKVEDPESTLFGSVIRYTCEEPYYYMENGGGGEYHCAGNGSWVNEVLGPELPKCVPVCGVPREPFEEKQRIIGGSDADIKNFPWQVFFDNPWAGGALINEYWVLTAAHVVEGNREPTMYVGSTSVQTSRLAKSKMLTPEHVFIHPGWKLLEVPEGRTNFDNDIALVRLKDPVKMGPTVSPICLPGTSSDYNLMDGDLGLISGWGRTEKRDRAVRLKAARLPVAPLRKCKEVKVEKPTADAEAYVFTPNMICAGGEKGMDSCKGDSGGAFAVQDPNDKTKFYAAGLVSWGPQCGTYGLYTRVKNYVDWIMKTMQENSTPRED
Procedure: ELISA was carried out by first coating 96-well plates with 200 ng/well of full-length or truncated C1s proteins overnight. The next morning, plates were blocked with SuperBlock T20 blocking buffer (Thermo Scientific 37536) for 1 h with gentle shaking. Then, various concentrations of anti-C1s antibodies diluted in SuperBlock T20 blocking buffer were added to the plates and incubated for 1 h with gentle shaking. Mouse IgG (Sigma-Aldrich 15381) and human IgG1 (BioXCell BP0297) were used as negative controls. The plates were washed before incubating with HRP conjugated secondary antibodies diluted in SuperBlock T20 blocking buffer (goat anti-mouse IgG (H+L) cross-adsorbed secondary antibody HRP (Invitrogen G-21040) or goat anti-human IgG antibody, HRP conjugate (Millipore AP309P)) for 1 h with gentle shaking. At last, the plates were washed and color developed with ELISA liquid HRP substrate (Sigma-Aldrich), followed by stopping the reaction with addition of 1M H₂SO₄ in the same volume as the ELISA liquid substrate. Bound antibody was measured by absorbance at OD₄₅₀ₙₘ.
Binding of anti-C1s antibodies to mutants M1-M20 of human C1s was measured by ELISA as described in Example 4, and results are shown in FIGS. 6B-6U. […]

Row | Binder | Kd [1] [pM] | koff [1] [s⁻¹] | kon [1] [M⁻¹ s⁻¹] | EC50 [2] [µg/mL]
1 | Anti-C1s antibody 2-7 (antibody, human IgG1, kappa, V domains shown, the HC/LC entries may hold it too; also called clone 2-7) VH: EVKLEESGGGLVPPGGSMKLSCVASGFTFSNYFMNWVRQSPEKGLEWVAEIRLKFTNYATHYAESVEGRFTISRDDSKSSVYLQMNNLRAEDTGIYYCTRDYGSRNGYFDYWGQGTTLTVSS VL: DIVMTQAAPSVPVTPGESVSISCRSSKSLLHSNGNTFLYWFLQRPGQSPQLLIYRMSNLASGVPDRFSGSGSGTAFTLRVSRVEAEDVGIYYCMQHLEYPYTFGGGTKLEIKT | 140 | 4.8e-05 | 350000 | 
2 | Anti-C1s antibody hz2-7(H1L2) (antibody, V domains shown, Humanized, human IgG1 / kappa; also called hz2-7(1L2)) VH: EVQLLESGGGLVQPGGSLRLSCAASGFTFSNYFMNWVRQAPGKGLEWVSEIRLKFTNYATHYADSVKGRFTISRDDSKSTLYLQMNSLRAEDTAVYYCTRDYGSRNGYFDYWGQGTLVTVSS VL: DIVMTQTPLSLPVTPGEPASISCRSSKSLLHSNGNTFLYWFLQKPGQSPQLLIYRMSNLASGVPDRFSGSGSGTDFTLKISRVEAEDVGVYYCMQHLEYPYTFGGGTKLEIKR |  |  |  | 0.015
